Reference: PMC3985463

Target: His6-UP1 C43S/C175S (hnRNP A1 UP1 domain; ITC) (Homo sapiens, UniProt P09651 1-196, C43S;C175S)
Assay: ITC

Sequence of His6-UP1 C43S/C175S (hnRNP A1 UP1 domain; ITC) (P09651 1-196 C43S/C175S): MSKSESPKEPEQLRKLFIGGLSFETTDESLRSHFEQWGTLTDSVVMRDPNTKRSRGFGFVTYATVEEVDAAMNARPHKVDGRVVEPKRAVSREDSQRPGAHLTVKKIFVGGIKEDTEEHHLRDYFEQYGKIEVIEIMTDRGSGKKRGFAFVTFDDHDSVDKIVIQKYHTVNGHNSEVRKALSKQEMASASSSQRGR

For GAUUAG (ssRNA) [ESS3b loop], the Kd was 4.17 ± 0.421 µM.
